Measurements published in paper PMC4405695, “The Rab6-regulated KIF1C kinesin motor domain contributes to Golgi organization” (eLife, 2015).

What was measured:
myc-KIF1C-350 = target: T1, myc-KIF1C-350 (human, UniProt O43896 1-350); test: pull-down; concentration dependence: in vitro translated myc-KIF1C-350 with GTPγS-loaded GST-Rab6A Q72L; apparent KD; fit with KaleidaGraph; details: one partner purified
T1 construct: KIF1C, human, N-terminal motor domain, residues 1-350; also called myc-KIF1C motor domain; in vitro translated KIF1C motor domain; source: in vitro translated
T1 sequence (looked up): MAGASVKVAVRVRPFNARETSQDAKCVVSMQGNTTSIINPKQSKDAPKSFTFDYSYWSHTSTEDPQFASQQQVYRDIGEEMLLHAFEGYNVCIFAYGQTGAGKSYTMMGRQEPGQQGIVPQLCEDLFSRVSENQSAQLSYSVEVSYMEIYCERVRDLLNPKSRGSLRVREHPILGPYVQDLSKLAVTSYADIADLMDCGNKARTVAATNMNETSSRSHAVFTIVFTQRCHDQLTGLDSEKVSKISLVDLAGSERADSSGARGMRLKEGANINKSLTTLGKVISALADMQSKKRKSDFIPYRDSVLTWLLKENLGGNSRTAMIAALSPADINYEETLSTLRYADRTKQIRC

His-Rab6A Q72L = target: T2, His-Rab6A Q72L (UniProt P20340 1-208, Q72L); test: pull-down; concentration dependence: GTPγS-loaded His-Rab6A Q72L (0.58 μM) with GST-KIF1C CBD immobilized on glutathione Sepharose; quantitative fluorescent antibody immunoblot; fit with GraphPad Prism; details: both partners purified
T2 construct: Rab6A GTPase, GTP-hydrolysis deficient mutant; also called active His-Rab6A; source: purified as described (Aivazian et al., 2006)

[1] = target: T3, Paclitaxel stabilized pre-polymerized microtubules (UniProt Q71U36 1-451; P07437 1-444, Paclitaxel-stabilized polymer, polymerized with GTP. One alpha/beta heterodimer represents the repeating unit. Source and isotypes are not given; mammalian (likely porcine) brain tubulin, a natural); test: co-sedimentation; KIF1C-355-His (160 nM) with His-Rab6A Q72L, His-Rab33 or BSA (3.42 µM), then increasing microtubules, 2.6 mM ADP, 0.35 mM GTPγS; BRB80; details: both partners purified
[2] = target: T3, Paclitaxel stabilized pre-polymerized …; test: co-sedimentation; KIF1C-355-His (80 nM) with His-Rab6A Q72L (4.86 µM) or BSA (7.6 µM), then increasing microtubules, 2.6 mM AMP-PNP, 0.35 mM GTPγS; BRB80; details: both partners purified

B1: GST-Rab6A Q72L (natural protein, UniProt P20340 1-208, looked up)
chain: MSTGGDFGNPLRKFKLVFLGEQSVGKTSLITRFMYDSFDNTYQATIGIDFLSKTMYLEDRTVRLQLWDTAGLERFRSLIPSYIRDSTVAVVVYDITNVNSFQQTTKWIDDVRTERGSDVIIMLVGNKTDLADKRQVSIEEGERKAKELNVMFIETSAKAGYNVKQLFRRVAAALPGMESTQDRSREDMIDIKLEKPQEQPVSEGGCSC
notes: Rab6A GTPase, GTP-hydrolysis deficient mutant; GTPγS-loaded; also called active Rab6A hydrolysis-deficient mutant; source: purified as described (Aivazian et al., 2006)
Kd (myc-KIF1C-350): 230 nM

B2: GST-KIF1C CBD (domain or fragment, human, UniProt O43896 1060-1103, looked up)
chain: SYPQPPQPYPAQRPPGPRYPPYTTPPRMRRQRSAPDLKESGAAV
notes: the text calls it the C-terminal 40 amino acids; Text says 40 C-terminal residues, the legend AA 1060-1103 (44 residues); source: bacteria, purified (glutathione-Sepharose)
Kd (His-Rab6A Q72L): 900 nM

B3: KIF1C-355-His (domain or fragment)
chain: MAGASVKVAVRVRPFNARETSQDAKCVVSMQGNTTSIINPKQSKDAPKSFTFDYSYWSHTSTEDPQFASQQQVYRDIGEEMLLHAFEGYNVCIFAYGQTGAGKSYTMMGRQEPGQQGIVPQLCEDLFSRVSENQSAQLSYSVEVSYMEIYCERVRDLLNPKSRGSLRVREHPILGPYVQDLSKLAVTSYADIADLMDCGNKARTVAATNMNETSSRSHAVFTIVFTQRCHDQLTGLDSEKVSKISLVDLAGSERADSSGARGMRLKEGANINKSLTTLGKVISALADMQSKKRKSDFIPYRDSVLTWLLKENLGGNSRTAMIAALSPADINYEETLSTLRYADRTKQIRNTVSVN
notes: KIF1C, human, motor domain residues 1-349; KIF5C heavy chain, murine, residues 329-334; Design follows Nitta et al., 2004 for KIF1A; also called recombinant KIF1C motor domain; purified KIF1C motor domain; source: E. coli Rosetta 2, purified (Ni-NTA, HiTrap Q FF); not shown: His6, C-terminal, kept
Kd [1]: 2100 nM | fold increase of KD with His-Rab6A (ADP state) [1]: > 10 fold | Kd [2]: 460 nM | fold increase of KD with His-Rab6A (AMP-PNP state) [2]: > 10 fold
